B1: SNX3 (parent)
chain: FLRQLPFRGDDGIFDDNFIEERKQ
B2: YPEL3 (parent)
chain: SKPKTFQAYLDDCHRRYSCAHCRA
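Also: lentivirally expressed fusions sorted by FACS into six bins by GFP to DsRed ratio, PSI derived from sequencing read proportions per bin multiplied by bin number.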

Variants of B1 are the subject of the first data set. Kind of data set: protein stability index of a GFP-peptide fusion (GPS, HEK-293T) (PSI 1-6); higher = more stable. Particulars: c terminus: a fixed tail appended.
Regarding FLRQLPFRGDDGIFDDNFIWERKQ [E20W], the protein stability index was found to be 2.17.

On to FLRQLPFRGDDGIFDDNFGEERKQ [I19G], for which the protein stability index was 3.87.

Consider FDRQLPFRGDDGIFDDNFIEERKQ [L2D], for which the protein stability index amounted to 4.72.

With FLRQLPFRGDDLIFDDNFIEERKQ [G12L], the protein stability index stood at 3.01.

In the case of FLRQLPFRGDDGIFDDNFIEERNQ [K23N], the protein stability index came out at 3.92.

Regarding FLSQLPFRGDDGIFDDNFIEERKQ [R3S], the protein stability index was determined as 3.1.

For FLRQLPGRGDDGIFDDNFIEERKQ [F7G], the protein stability index was determined as 3.5.

In the case of FLRQLPFRGDDGIFDHNFIEERKQ [D16H], the protein stability index was 3.6.

For the variant FLRQLPFRGEDGIFDDNFIEERKQ [D10E], the protein stability index came to 3.33.

Variants of B2 are the subject of the next data set. The description is as above. Particulars: c terminus: a fixed tail appended.
As to SKPETFQAYLDDCHRRYSCAHCRA [K4E], the protein stability index worked out at 2.09.

With SKPWTFQAYLDDCHRRYSCAHCRA [K4W], the protein stability index came out at 1.59.

As to SKPDTFQAYLDDCHRRYSCAHCRA [K4D], the protein stability index turned out to be 1.86.

As for SKPVTFQAYLDDCHRRYSCAHCRA [K4V], the protein stability index was 2.57.

SKPCTFQAYLDDCHRRYSCAHCRA [K4C]: the protein stability index stood at 1.86.

Take SKPFTFQAYLDDCHRRYSCAHCRA [K4F]: the protein stability index turned out to be 1.72.

Turning to SKPYTFQAYLDDCHRRYSCAHCRA [K4Y], the protein stability index turned out to be 2.04.

For SKPSTFQAYLDDCHRRYSCAHCRA [K4S], the protein stability index is 2.5.

Turning to SKPRTFQAYLDDCHRRYSCAHCRA [K4R], the protein stability index came out at 1.86.

As for SKPLTFQAYLDDCHRRYSCAHCRA [K4L], the protein stability index came out at 2.42.

Regarding SKPMTFQAYLDDCHRRYSCAHCRA [K4M], the protein stability index was determined as 2.28.

In the case of SKPNTFQAYLDDCHRRYSCAHCRA [K4N], the protein stability index came to 1.87.

For SKPATFQAYLDDCHRRYSCAHCRA [K4A], the protein stability index is 2.47.

For the variant SKPPTFQAYLDDCHRRYSCAHCRA [K4P], the protein stability index stood at 1.9.

As for SKPITFQAYLDDCHRRYSCAHCRA [K4I], the protein stability index was determined as 1.6.

For SKPHTFQAYLDDCHRRYSCAHCRA [K4H], the protein stability index stood at 2.59.

Regarding SKPTTFQAYLDDCHRRYSCAHCRA [K4T], the protein stability index came to 1.74.

For the variant SKPGTFQAYLDDCHRRYSCAHCRA [K4G], the protein stability index came out at 2.71.

For the variant SKPQTFQAYLDDCHRRYSCAHCRA [K4Q], the protein stability index amounted to 1.8.

In the case of SKCKTFQAYLDDCHRRYSCAHCRA [P3C], the protein stability index stood at 2.6.

For SKWKTFQAYLDDCHRRYSCAHCRA [P3W], the protein stability index came to 1.8.

As for SKYKTFQAYLDDCHRRYSCAHCRA [P3Y], the protein stability index was determined as 1.72.

SKDKTFQAYLDDCHRRYSCAHCRA [P3D]: the protein stability index worked out at 2.11.

SKEKTFQAYLDDCHRRYSCAHCRA [P3E]: the protein stability index was found to be 2.31.

For the variant SKNKTFQAYLDDCHRRYSCAHCRA [P3N], the protein stability index worked out at 2.26.

Turning to SKFKTFQAYLDDCHRRYSCAHCRA [P3F], the protein stability index was found to be 3.23.

Regarding SKHKTFQAYLDDCHRRYSCAHCRA [P3H], the protein stability index is 1.54.

Take SKKKTFQAYLDDCHRRYSCAHCRA [P3K]: the protein stability index worked out at 2.29.

Consider SKSKTFQAYLDDCHRRYSCAHCRA [P3S], for which the protein stability index came to 1.82.

On to SKIKTFQAYLDDCHRRYSCAHCRA [P3I], for which the protein stability index was determined as 2.19.

On to SKMKTFQAYLDDCHRRYSCAHCRA [P3M], for which the protein stability index turned out to be 3.01.

Regarding SKRKTFQAYLDDCHRRYSCAHCRA [P3R], the protein stability index was 2.05.

Turning to SKVKTFQAYLDDCHRRYSCAHCRA [P3V], the protein stability index is 2.

For the variant SKTKTFQAYLDDCHRRYSCAHCRA [P3T], the protein stability index is 1.92.

As for SKLKTFQAYLDDCHRRYSCAHCRA [P3L], the protein stability index came to 2.13.

Consider SKGKTFQAYLDDCHRRYSCAHCRA [P3G], for which the protein stability index amounted to 2.13.

As to SKAKTFQAYLDDCHRRYSCAHCRA [P3A], the protein stability index was 1.66.

With SKQKTFQAYLDDCHRRYSCAHCRA [P3Q], the protein stability index was found to be 1.97.

Take GKPKTFQAYLDDCHRRYSCAHCRA [S1G]: the protein stability index came out at 2.07.

Regarding FKPKTFQAYLDDCHRRYSCAHCRA [S1F], the protein stability index stood at 1.67.

Consider WKPKTFQAYLDDCHRRYSCAHCRA [S1W], for which the protein stability index is 1.66.

Regarding RKPKTFQAYLDDCHRRYSCAHCRA [S1R], the protein stability index turned out to be 1.92.

Turning to IKPKTFQAYLDDCHRRYSCAHCRA [S1I], the protein stability index came out at 2.81.

On to AKPKTFQAYLDDCHRRYSCAHCRA [S1A], for which the protein stability index was 2.11.

As for VKPKTFQAYLDDCHRRYSCAHCRA [S1V], the protein stability index worked out at 1.38.

With HKPKTFQAYLDDCHRRYSCAHCRA [S1H], the protein stability index came to 2.07.

For EKPKTFQAYLDDCHRRYSCAHCRA [S1E], the protein stability index is 1.52.

As to CKPKTFQAYLDDCHRRYSCAHCRA [S1C], the protein stability index was 2.29.

Consider YKPKTFQAYLDDCHRRYSCAHCRA [S1Y], for which the protein stability index worked out at 1.99.

With MKPKTFQAYLDDCHRRYSCAHCRA [S1M], the protein stability index amounted to 2.

As to DKPKTFQAYLDDCHRRYSCAHCRA [S1D], the protein stability index worked out at 2.21.

As for LKPKTFQAYLDDCHRRYSCAHCRA [S1L], the protein stability index stood at 3.27.

Take NKPKTFQAYLDDCHRRYSCAHCRA [S1N]: the protein stability index stood at 2.04.

For the variant PKPKTFQAYLDDCHRRYSCAHCRA [S1P], the protein stability index was determined as 2.67.

On to QKPKTFQAYLDDCHRRYSCAHCRA [S1Q], for which the protein stability index turned out to be 2.08.

On to KKPKTFQAYLDDCHRRYSCAHCRA [S1K], for which the protein stability index was determined as 1.98.

For SHPKTFQAYLDDCHRRYSCAHCRA [K2H], the protein stability index came out at 2.

Turning to SIPKTFQAYLDDCHRRYSCAHCRA [K2I], the protein stability index was 1.63.

SLPKTFQAYLDDCHRRYSCAHCRA [K2L]: the protein stability index was found to be 1.85.

As for SQPKTFQAYLDDCHRRYSCAHCRA [K2Q], the protein stability index was 2.31.

With SMPKTFQAYLDDCHRRYSCAHCRA [K2M], the protein stability index came out at 1.7.

SGPKTFQAYLDDCHRRYSCAHCRA [K2G]: the protein stability index turned out to be 2.34.

Take SSPKTFQAYLDDCHRRYSCAHCRA [K2S]: the protein stability index worked out at 1.8.

Regarding SPPKTFQAYLDDCHRRYSCAHCRA [K2P], the protein stability index amounted to 1.95.

Regarding SEPKTFQAYLDDCHRRYSCAHCRA [K2E], the protein stability index was determined as 1.63.

On to SRPKTFQAYLDDCHRRYSCAHCRA [K2R], for which the protein stability index amounted to 1.89.

Take SDPKTFQAYLDDCHRRYSCAHCRA [K2D]: the protein stability index was found to be 2.89.

For the variant SAPKTFQAYLDDCHRRYSCAHCRA [K2A], the protein stability index was found to be 2.18.

Regarding SCPKTFQAYLDDCHRRYSCAHCRA [K2C], the protein stability index was found to be 2.38.

For SWPKTFQAYLDDCHRRYSCAHCRA [K2W], the protein stability index came out at 2.58.

On to SFPKTFQAYLDDCHRRYSCAHCRA [K2F], for which the protein stability index was found to be 1.88.

Turning to SVPKTFQAYLDDCHRRYSCAHCRA [K2V], the protein stability index turned out to be 2.22.

Consider SNPKTFQAYLDDCHRRYSCAHCRA [K2N], for which the protein stability index is 2.34.

On to STPKTFQAYLDDCHRRYSCAHCRA [K2T], for which the protein stability index came out at 2.19.

On to SYPKTFQAYLDDCHRRYSCAHCRA [K2Y], for which the protein stability index is 1.85.

On to SKPKGFQAYLDDCHRRYSCAHCRA [T5G], for which the protein stability index came to 2.11.

Take SKPKDFQAYLDDCHRRYSCAHCRA [T5D]: the protein stability index amounted to 2.94.

SKPKEFQAYLDDCHRRYSCAHCRA [T5E]: the protein stability index was 3.37.

SKPKAFQAYLDDCHRRYSCAHCRA [T5A]: the protein stability index was 2.46.

In the case of SKPKFFQAYLDDCHRRYSCAHCRA [T5F], the protein stability index worked out at 1.84.

Turning to SKPKCFQAYLDDCHRRYSCAHCRA [T5C], the protein stability index turned out to be 2.33.

As for SKPKLFQAYLDDCHRRYSCAHCRA [T5L], the protein stability index was 2.37.

SKPKKFQAYLDDCHRRYSCAHCRA [T5K]: the protein stability index was 2.25.

For SKPKHFQAYLDDCHRRYSCAHCRA [T5H], the protein stability index is 2.57.

Consider SKPKIFQAYLDDCHRRYSCAHCRA [T5I], for which the protein stability index was determined as 2.75.

The values are drawn from the supplement of paper PMC10567573.
